What was measured:
Format in all cases: cell-based, human
CD34+ HSPCs [1] = assay: TPO requirement with or without TNFα, 14-day culture; details: 14 days
Description: To assess the requirement for TPO in T lineage development, CD34+ HSPCs were analyzed by flow cytometry after 14 days in the presence or absence of TNFα, and further in the presence or absence of TPO.

CD34+ HSPCs [2] = assay: Definitive screening design cytokine screen for proT cell differentiation and expansion; details: for effect on total live cells, CD7+ lymphocytes and CD7+CD5+ cells relative to the control condition: day 0-7 and day 7-14, control SCF, FLT3L, TPO, IL-7 at 20 ng/ml each, linear regression model
Description: For experiments 7 days or longer, HSPCs were seeded at 63-125 cells/mm^2 (equivalent to 2000-4000 cells/well of a 96-well plate) on DL4+VCAM-1-coated surfaces. Experiments shorter than 7 days (CFSE and qPCR) were seeded at 470-780 cells/mm^2 (equivalent to 15,000-25,000 cells/well of a 96-well plate) to provide enough cells for analysis. Cells were cultured in 100 μl/well (32 μl/well for 384-well plate) of Iscove's Modified Eagle Medium (IMDM) supplemented with 20% bovine serum albumin, insulin, and transferrin (BIT 9500) serum substitute (Stemcell Technologies), 1 μg/ml low-density lipoprotein (LDL; Stemcell Technologies), 60 μM ascorbic acid (Sigma), 24 μM 2-mercaptoethanol (Sigma), and 1% penicillin-streptomycin (P/S; Invitrogen). The cytokines used in control condition were SCF, FLT3L, TPO, and IL-7 (also known as the “4F cytokines”, all of which were obtained from R&D Systems), each at a concentration of 20 ng/ml or 100 ng/ml as indicated in the text. All other cytokines were purchased from R&D Systems and used in the combinations and concentrations indicated in the text. For certain experiments, the γ-secretase inhibitor (2S)-N-[(3,5-Difluorophenyl)acetyl]-L-alanyl-2-phenyl] glycine 1,1-dimethylethyl ester (DAPT) or dimethyl sulfoxide (DMSO) was added to media at the concentrations indicated in the text.
For screening experiments, a Definitive Screening Design (DSD)^7 was employed where each factor was tested at three levels (scaled to [−1,0,1]). The design included at least 2m+1 runs, where m is the number of factors, comprised of m fold-over pairs plus a center run (with all factors at level 0) and with orthogonal blocking of UCB donors.^8
Absolute cell numbers were acquired for each cell population of interest and, for initial experiments, a z-score was calculated relative to the control condition:
where SE(⋅) is the standard error. Control conditions were the cytokines used previously in the DL4+VCAM-1 assay as in Shukla et al.^6 Stepwise regression using the minimum Bayesian information criterion method was used to determine significant terms and, from this, a linear regression model of z-scores was constructed that included main and quadratic effects and two-factor interactions. This provided a better- or worse-than estimate for each factor compared to the control. The DSD layout and regression model were constructed using JMP 13 software (SAS). Follow up experiments measuring the dose response of top factors, the regression model was fit to the absolute cell count. Values were square root or log-transformed as necessary to ensure that residuals were approximately normal before fitting the regression model.
Test conditions were arranged using serial dilutions of each cytokine and laid out using an Eppendorf epMotion 5070 liquid handler in 384-well plates previously coated with DL4 and VCAM-1.
To identify factors that enhance proT cell differentiation and expansion, a two-part screen was conducted from day 0-7 and day 7-14 to separate the effects of screened molecules on HSPCs and differentiating proT cells (FIG. 1a). Screened molecules were tested at three doses each in combination using a definitive screening design (DSD) experiment and a linear regression model was fit to empirical data to estimate dose response.^7 The response to factors was measured against a control condition that contained SCF, FLT3L, TPO and IL-7 cytokines as in Shukla et al.^6 but using a lower concentration of 20 ng/ml each.
Medium gray indicates the effect of the control condition; dark gray to black indicates an effect greater than the control condition; and light gray to white indicates an effect lesser than the control condition. The size of each circle indicates the significance of the effect in the linear regression model. Combinations of factors indicate two-factor interactions (e.g., TPO*IL-1β) or quadratic effects (e.g., IL-21*IL-21) in the regression model. […] IL-3 and TNFα were selected for further investigation. […]

HSPCs = assay: CFSE proliferation assay of HSPCs on DL4+VCAM-1
Description: To track the number of cell divisions, cells were stained with 2.5 μM CellTrace™ CFSE (ThermoFisher) in PBS and incubated at 37° C. for 8 minutes. CFSE was quenched by adding 5 times the volume of IMDM+BIT and incubating at 37° C. for 5 minutes. Cells were then resuspended in fresh media and seeded on DL4+VCAM-1 for culture. For analysis, cells were collected and stained for CD34, CD7, and CD5 surface markers as described above and analyzed using flow cytometry. Proliferation was modelled using FlowJo™ software and further analysis was performed with R.
To track the number of cell divisions in response to each of IL-3 and TNFα, the HSPCs were first stained with carboxyfluorescein succinimidyl ester (CFSE). IL-3 or TNFα were added on day 0 and the number of divisions of each cell was analyzed on days 2, 3, 4 and 5.

CD34+ HSPCs [3] = assay: IL-3, TNFα or IL-3+TNFα culture on DL4+VCAM-1, flow cytometry on day 7 and day 14; details: day 7 and day 14 (FIGS. 5d and e)
Description: For experiments 7 days or longer, HSPCs were seeded at 63-125 cells/mm^2 (equivalent to 2000-4000 cells/well of a 96-well plate) on DL4+VCAM-1-coated surfaces. Experiments shorter than 7 days (CFSE and qPCR) were seeded at 470-780 cells/mm^2 (equivalent to 15,000-25,000 cells/well of a 96-well plate) to provide enough cells for analysis. Cells were cultured in 100 μl/well (32 μl/well for 384-well plate) of Iscove's Modified Eagle Medium (IMDM) supplemented with 20% bovine serum albumin, insulin, and transferrin (BIT 9500) serum substitute (Stemcell Technologies), 1 μg/ml low-density lipoprotein (LDL; Stemcell Technologies), 60 μM ascorbic acid (Sigma), 24 μM 2-mercaptoethanol (Sigma), and 1% penicillin-streptomycin (P/S; Invitrogen). The cytokines used in control condition were SCF, FLT3L, TPO, and IL-7 (also known as the “4F cytokines”, all of which were obtained from R&D Systems), each at a concentration of 20 ng/ml or 100 ng/ml as indicated in the text. All other cytokines were purchased from R&D Systems and used in the combinations and concentrations indicated in the text. For certain experiments, the γ-secretase inhibitor (2S)-N-[(3,5-Difluorophenyl)acetyl]-L-alanyl-2-phenyl] glycine 1,1-dimethylethyl ester (DAPT) or dimethyl sulfoxide (DMSO) was added to media at the concentrations indicated in the text. […]

## TPO: cytokine thrombopoietin, one of the 4F cytokines
CD34+ HSPCs [1]; TNFα present
  CD7+ lymphoid cell development after removal of TPO: not detrimental
CD34+ HSPCs [1]; absence of TNFα
  number of CD7+ cells after removal of TPO: decreased significantly
CD34+ HSPCs [1]; with or without TNFα
  number of CD14/33+ myeloid cells after removal of TPO: decreased the number of CD14/33+ myeloid cells

## SCF: cytokine stem cell factor, one of the 4F cytokines
CD34+ HSPCs [2]
  effect on total live cells, CD7+ lymphocytes and CD7+CD5+ cells relative to the control condition: string positive effects

B1: IL-3: cytokine; protein that in humans is encoded by the IL3 gene (accession P08700; SEQ ID NO: 7) (protein, listed as Homo sapiens)
chain: MSRLPVLLLLQLLVRPGLQAPMTQTTPLKTSWVNCSNMIDEIITHLKQPPLPLLDFNNLNGEDQDILMENNLRRPNLEAFNRAVKSLQNASAIESILKNLLPCLPLATAAPTRHPIHIKDGDWNEFRRKLTFYLKTLENAQAQQTTLSLAIF
HSPCs; CFSE, days 2-5
  average number of divisions vs control: more divisions than the control group
  variance in the number of divisions vs control: significantly larger variance
HSPCs; by day 5
  CD7+ frequency vs control: lower CD7+frequency than the control
HSPCs; cytokine added on day 0, days 2-5
  cell fraction affected (CD7− vs CD7+ cells), number of divisions: predominantly affecting the CD7− fraction
HSPCs; days 2-5
  upregulation of CD7: upregulated CD7 comparably to the control
CD34+ HSPCs [3]
  number of CD14/33+ myeloid lineage cells, IL-3 compared with IL-3+TNFα conditions: similar
CD34+ HSPCs [2]
  effect on total live cells, CD7+ lymphocytes and CD7+CD5+ cells relative to the control condition: string positive effects
CD34+ HSPCs [2]; range of concentrations, n=2 UCB donors
  dose response of live cells, CD7+ lymphocytes and CD7+CD5+ proT cells: curved response in at least one population

B2: IL-7: cytokine interleukin 7, one of the 4F cytokines (protein, UniProt P13232 26-177, looked up)
Interleukin-7: DCDIEGKDGKQYESVLMVSIDQLLDSMKEIGSNCLNNEFNFFKRHICDANKEGMFLFRAARKLRQFLKMNSTGDFDLHLLKVSEGTTILLNCTGQVKGRKPAALGEAQPTKSLEENKSLKEQKKLNDLCFLKRLLQEIKTCWNKILMGTKEH
CD34+ HSPCs [2]
  effect on total live cells, CD7+ lymphocytes and CD7+CD5+ cells relative to the control condition: string positive effects
